Measured values from PMC9482650, “Quantitative fragmentomics allow affinity mapping of interactomes” (Nature Communications, 2022).

Columns and labels:
Assay in all cases: holdup assay
Design in all cases: key: below the threshold = too weak to quantify, mostly under pKd 3.1 to 4
RIMS2, Q9UQ26 = biological target: RIMS2, Q9UQ26
DLG5_2, Q8TDM6 = biological target: DLG5_2, Q8TDM6
NHERF2_1, Q15599 = biological target: NHERF2_1, Q15599
NHERF1_1, O14745 = biological target: T1, NHERF1_1, O14745
T1 sequence (O14745 9-104, limits assumed, looked up): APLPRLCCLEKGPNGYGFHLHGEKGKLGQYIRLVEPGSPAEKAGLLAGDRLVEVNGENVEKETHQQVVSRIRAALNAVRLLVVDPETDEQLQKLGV

GIPC3, Q8TF64 = biological target: GIPC3, Q8TF64
Chain of GIPC3, Q8TF64 (Q8TF64 107-202): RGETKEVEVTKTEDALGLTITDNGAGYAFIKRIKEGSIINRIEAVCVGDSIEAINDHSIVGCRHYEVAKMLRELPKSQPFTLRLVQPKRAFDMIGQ

MLLT4, P55196 = biological target: T2, MLLT4, P55196
T2 sequence (P55196 1002-1103, limits assumed, looked up): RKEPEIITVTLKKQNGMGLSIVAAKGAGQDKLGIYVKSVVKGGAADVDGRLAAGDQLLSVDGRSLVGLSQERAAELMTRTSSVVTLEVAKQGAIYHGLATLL

PDZD9, Q8IXQ8 = biological target: PDZD9, Q8IXQ8
Chain of PDZD9, Q8IXQ8 (Q8IXQ8 23-120): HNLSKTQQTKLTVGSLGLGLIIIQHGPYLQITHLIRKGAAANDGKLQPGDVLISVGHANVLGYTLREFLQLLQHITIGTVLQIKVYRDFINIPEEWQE

CARD14, Q9BXL6 = biological target: CARD14, Q9BXL6
Chain of CARD14, Q9BXL6 (Q9BXL6 558-663): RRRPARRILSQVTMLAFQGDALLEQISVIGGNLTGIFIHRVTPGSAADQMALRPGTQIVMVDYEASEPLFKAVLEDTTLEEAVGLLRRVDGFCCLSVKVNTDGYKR

DVL2, O14641 = biological target: DVL2, O14641
Chain of DVL2, O14641 (O14641 260-359): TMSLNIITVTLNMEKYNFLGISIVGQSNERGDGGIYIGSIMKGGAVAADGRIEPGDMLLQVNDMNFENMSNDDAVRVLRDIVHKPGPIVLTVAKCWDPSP

USH1C_3, Q9Y6N9 = biological target: T3, USH1C_3, Q9Y6N9
T3 sequence (Q9Y6N9 447-547, limits assumed, looked up): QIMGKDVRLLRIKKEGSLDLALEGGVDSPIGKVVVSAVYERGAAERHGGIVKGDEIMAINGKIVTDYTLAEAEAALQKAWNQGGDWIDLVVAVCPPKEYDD

SHANK2, Q9UPX8 = biological target: T4, SHANK2, Q9UPX8
T4 sequence (Q9UPX8 621-730, limits assumed, looked up): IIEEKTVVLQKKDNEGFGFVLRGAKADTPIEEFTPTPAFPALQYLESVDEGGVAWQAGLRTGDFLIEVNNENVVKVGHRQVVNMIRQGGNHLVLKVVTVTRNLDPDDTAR

GRIP2_2, Q9C0E4 = biological target: GRIP2_2, Q9C0E4
Chain of GRIP2_2, Q9C0E4 (Q9C0E4 137-245): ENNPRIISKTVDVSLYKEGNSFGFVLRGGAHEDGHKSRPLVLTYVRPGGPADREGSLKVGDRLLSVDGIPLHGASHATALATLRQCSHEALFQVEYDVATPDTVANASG

PDZD7_2, Q9H5P4 = biological target: T5, PDZD7_2, Q9H5P4
T5 sequence (Q9H5P4 205-303, limits assumed, looked up): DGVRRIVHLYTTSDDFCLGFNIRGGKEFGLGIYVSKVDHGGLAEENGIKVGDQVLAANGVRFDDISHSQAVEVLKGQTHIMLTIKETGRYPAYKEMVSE

LNX1_4, Q8TBB1 = biological target: LNX1_4, Q8TBB1
Chain of LNX1_4, Q8TBB1 (Q8TBB1 631-726): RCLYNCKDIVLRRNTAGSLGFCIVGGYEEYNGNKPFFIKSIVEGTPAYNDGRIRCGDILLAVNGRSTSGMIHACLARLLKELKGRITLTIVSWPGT

MAGI1_6, Q96QZ7 = biological target: MAGI1_6, Q96QZ7
Chain of MAGI1_6, Q96QZ7 (Q96QZ7 1146-1238): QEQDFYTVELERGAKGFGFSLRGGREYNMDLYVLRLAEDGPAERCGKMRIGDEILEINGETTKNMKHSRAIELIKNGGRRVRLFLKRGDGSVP

PDZD8, Q8NEN9 = biological target: T6, PDZD8, Q8NEN9
T6 sequence (Q8NEN9 361-459, limits assumed, looked up): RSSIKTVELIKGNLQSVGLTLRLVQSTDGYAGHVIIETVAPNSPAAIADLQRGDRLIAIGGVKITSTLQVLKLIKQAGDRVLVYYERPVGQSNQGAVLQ

AHNAK2, Q8IVF2 = biological target: AHNAK2, Q8IVF2
Chain of AHNAK2, Q8IVF2 (Q8IVF2 108-193): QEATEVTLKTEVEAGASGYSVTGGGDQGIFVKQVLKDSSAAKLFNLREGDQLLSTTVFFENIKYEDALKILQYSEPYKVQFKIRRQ

PARD3_1, Q8TEW0 = biological target: PARD3_1, Q8TEW0
Chain of PARD3_1, Q8TEW0 (Q8TEW0 264-372): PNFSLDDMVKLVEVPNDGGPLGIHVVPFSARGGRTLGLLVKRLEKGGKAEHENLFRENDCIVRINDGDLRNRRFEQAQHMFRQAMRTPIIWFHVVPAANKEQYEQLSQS

MAGI3_3, Q5TCQ9 = biological target: MAGI3_3, Q5TCQ9
Chain of MAGI3_3, Q5TCQ9 (Q5TCQ9 572-655): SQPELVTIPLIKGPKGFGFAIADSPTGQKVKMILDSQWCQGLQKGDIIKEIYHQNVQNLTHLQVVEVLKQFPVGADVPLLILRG

MAGI1_4, Q96QZ7 = biological target: MAGI1_4, Q96QZ7
Chain of MAGI1_4, Q96QZ7 (Q96QZ7 other isoform, or with tags, fused parts or gaps): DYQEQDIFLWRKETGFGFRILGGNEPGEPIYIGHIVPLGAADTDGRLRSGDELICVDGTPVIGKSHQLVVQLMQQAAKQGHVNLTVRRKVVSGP

CNKSR3, Q6P9H4 = biological target: CNKSR3, Q6P9H4
Chain of CNKSR3, Q6P9H4 (Q6P9H4 203-303): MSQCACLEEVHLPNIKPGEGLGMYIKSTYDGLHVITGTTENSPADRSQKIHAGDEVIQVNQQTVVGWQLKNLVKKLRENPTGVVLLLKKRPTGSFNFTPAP

GIPC1, O14908 = biological target: T7, GIPC1, O14908
T7 sequence (O14908 128-223, limits assumed, looked up): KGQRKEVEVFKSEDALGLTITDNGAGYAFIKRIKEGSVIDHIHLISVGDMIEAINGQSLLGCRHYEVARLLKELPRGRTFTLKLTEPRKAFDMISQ

GRIP1_1, Q9Y3R0 = biological target: T8, GRIP1_1, Q9Y3R0
T8 sequence (Q9Y3R0 48-146, limits assumed, looked up): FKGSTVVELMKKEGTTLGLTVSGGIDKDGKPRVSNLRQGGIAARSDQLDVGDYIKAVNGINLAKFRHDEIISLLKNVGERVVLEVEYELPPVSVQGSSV

LMO7, Q8WWI1 = biological target: LMO7, Q8WWI1
Chain of LMO7, Q8WWI1 (Q8WWI1 1037-1138): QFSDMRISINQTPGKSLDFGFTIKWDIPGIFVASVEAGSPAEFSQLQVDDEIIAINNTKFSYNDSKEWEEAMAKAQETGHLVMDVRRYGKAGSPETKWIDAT

Inadl_7, Q8NI35 = biological target: Inadl_7, Q8NI35
Chain of Inadl_7, Q8NI35 (Q8NI35 1219-1332): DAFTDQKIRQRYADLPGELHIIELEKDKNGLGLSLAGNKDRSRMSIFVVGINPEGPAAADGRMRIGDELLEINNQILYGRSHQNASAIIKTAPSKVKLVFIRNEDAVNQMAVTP

MAGI1_5, Q96QZ7 = biological target: MAGI1_5, Q96QZ7
Chain of MAGI1_5, Q96QZ7 (Q96QZ7 986-1098): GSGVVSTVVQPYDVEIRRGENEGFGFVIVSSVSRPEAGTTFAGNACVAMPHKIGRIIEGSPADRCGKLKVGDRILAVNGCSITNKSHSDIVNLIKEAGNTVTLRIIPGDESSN

LIMK1, P53667 = biological target: LIMK1, P53667
Chain of LIMK1, P53667 (P53667 155-268): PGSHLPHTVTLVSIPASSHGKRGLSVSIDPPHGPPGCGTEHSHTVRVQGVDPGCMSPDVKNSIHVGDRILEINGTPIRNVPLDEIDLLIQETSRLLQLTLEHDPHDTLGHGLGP

SNTB2, Q13425 = biological target: T9, SNTB2, Q13425; conditions: plain residues with an end cap or a label only (N-terminal biotin on a linker: (peg)3)
T9 sequence (Q13425 110-208, limits assumed, looked up): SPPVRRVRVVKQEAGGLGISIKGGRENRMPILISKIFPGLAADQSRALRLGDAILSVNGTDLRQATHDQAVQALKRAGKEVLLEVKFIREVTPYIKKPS

[1] = modified: phospho on S at position -3 from the C-terminal residue
[2] = modified: acetyl on K at position -1 from the C-terminal residue
[3] = plain residues with an end cap or a label only (N-terminal biotin on a linker: (peg)3)

Chain of RIMS2, Q9UQ26 (Q9UQ26 637-758): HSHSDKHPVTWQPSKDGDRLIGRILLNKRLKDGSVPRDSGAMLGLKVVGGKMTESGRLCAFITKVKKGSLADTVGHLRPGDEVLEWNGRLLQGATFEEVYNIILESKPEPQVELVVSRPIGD
Chain of DLG5_2, Q8TDM6 (Q8TDM6 714-800): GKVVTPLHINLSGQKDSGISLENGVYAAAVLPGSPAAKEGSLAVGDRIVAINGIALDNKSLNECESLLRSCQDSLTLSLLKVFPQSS
Chain of NHERF2_1, Q15599 (Q15599 9-91): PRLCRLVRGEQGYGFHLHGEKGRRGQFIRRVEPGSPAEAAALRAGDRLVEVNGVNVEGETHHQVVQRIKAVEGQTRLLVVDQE

B1: RPS6KA1_-3P, Q15418 (peptide)
chain: RRVRKLPSTTL
With B1 the pKd (RIMS2, Q9UQ26; [1]) was “below the threshold”, the pKd (DLG5_2, Q8TDM6; [1]) was “below the threshold” and the pKd (NHERF2_1, Q15599; [1]) was “below the threshold”. For the same binder, the pKd (NHERF1_1, O14745; [1]) was “below the threshold”, the pKd (GIPC3, Q8TF64; [1]) was “below the threshold” and the pKd (MLLT4, P55196; [1]) was “below the threshold”. For the same binder, the pKd (PDZD9, Q8IXQ8; [1]) was “below the threshold”, the pKd (CARD14, Q9BXL6; [1]) was “below the threshold” and the pKd (DVL2, O14641; [1]) was “below the threshold”. For the same binder, the pKd (USH1C_3, Q9Y6N9; [1]) was “below the threshold”, the pKd (SHANK2, Q9UPX8; [1]) was “below the threshold” and the pKd (GRIP2_2, Q9C0E4; [1]) was “below the threshold”. The pKd (PDZD7_2, Q9H5P4; [1]) was 3.49, the pKd (LNX1_4, Q8TBB1; [1]) was “below the threshold” and the pKd (MAGI1_6, Q96QZ7; [1]) was “below the threshold”. The pKd (PDZD8, Q8NEN9; [1]) was “below the threshold”, the pKd (AHNAK2, Q8IVF2; [1]) was 3.54 and the pKd (PARD3_1, Q8TEW0; [1]) was “below the threshold”. For the same binder, the pKd (MAGI3_3, Q5TCQ9; [1]) was “below the threshold”, the pKd (MAGI1_4, Q96QZ7; [1]) was “below the threshold” and the pKd (CNKSR3, Q6P9H4; [1]) was “below the threshold”. For the same binder, the pKd (GIPC1, O14908; [1]) was “below the threshold”, the pKd (GRIP1_1, Q9Y3R0; [1]) was “below the threshold” and the pKd (LMO7, Q8WWI1; [1]) was “below the threshold”. The pKd (Inadl_7, Q8NI35; [1]) was “below the threshold” and the pKd (MAGI1_5, Q96QZ7; [1]) was “below the threshold”.

B2: PTEN_Ac, P60484 (peptide)
chain: DEDQHTQITKV
For B2, the pKd (RIMS2, Q9UQ26; [2]) was “below the threshold”, the pKd (LIMK1, P53667; [2]) was “below the threshold” and the pKd (DLG5_2, Q8TDM6; [2]) was “below the threshold”. The pKd (NHERF2_1, Q15599; [2]) was “below the threshold”, the pKd (NHERF1_1, O14745; [2]) was 4.85 and the pKd (PDZD9, Q8IXQ8; [2]) was “below the threshold”. For the same binder, the pKd (SHANK2, Q9UPX8; [2]) was 3.97, the pKd (MAGI1_6, Q96QZ7; [2]) was “below the threshold” and the pKd (PDZD8, Q8NEN9; [2]) was “below the threshold”. For the same binder, the pKd (AHNAK2, Q8IVF2; [2]) was “below the threshold”, the pKd (PARD3_1, Q8TEW0; [2]) was “below the threshold” and the pKd (MAGI3_3, Q5TCQ9; [2]) was “below the threshold”. For the same binder, the pKd (GIPC1, O14908; [2]) was “below the threshold”, the pKd (Inadl_7, Q8NI35; [2]) was 4.2 and the pKd (MAGI1_5, Q96QZ7; [2]) was 4.84.

B3: SARS-Cov2-3a, P0DTC3 (peptide)
chain: YDEPTTTTSVPL
With B3 the pKd (RIMS2, Q9UQ26; [3]) was “below the threshold”, the pKd (LIMK1, P53667; [3]) was “below the threshold” and the pKd (DLG5_2, Q8TDM6; [3]) was “below the threshold”. The pKd (NHERF2_1, Q15599; [3]) was “below the threshold”, the pKd (NHERF1_1, O14745; [3]) was “below the threshold” and the pKd (GIPC3, Q8TF64; [3]) was “below the threshold”. For the same binder, the pKd (MLLT4, P55196; [3]) was “below the threshold”, the pKd (PDZD9, Q8IXQ8; [3]) was “below the threshold” and the pKd (CARD14, Q9BXL6; [3]) was “below the threshold”. For the same binder, the pKd (DVL2, O14641; [3]) was “below the threshold”, the pKd (USH1C_3, Q9Y6N9; [3]) was “below the threshold” and the pKd (SHANK2, Q9UPX8; [3]) was “below the threshold”. For the same binder, the pKd (GRIP2_2, Q9C0E4; [3]) was “below the threshold”, the pKd (PDZD7_2, Q9H5P4; [3]) was “below the threshold” and the pKd (LNX1_4, Q8TBB1; [3]) was “below the threshold”. The pKd (MAGI1_6, Q96QZ7; [3]) was “below the threshold”, the pKd (PDZD8, Q8NEN9; [3]) was “below the threshold” and the pKd (AHNAK2, Q8IVF2; [3]) was “below the threshold”. For the same binder, the pKd (PARD3_1, Q8TEW0; [3]) was 3.98, the pKd (MAGI3_3, Q5TCQ9; [3]) was “below the threshold” and the pKd (MAGI1_4, Q96QZ7; [3]) was “below the threshold”. The pKd (CNKSR3, Q6P9H4; [3]) was “below the threshold”, the pKd (GIPC1, O14908; [3]) was “below the threshold” and the pKd (GRIP1_1, Q9Y3R0; [3]) was “below the threshold”. For the same binder, the pKd (LMO7, Q8WWI1; [3]) was “below the threshold”, the pKd (Inadl_7, Q8NI35; [3]) was “below the threshold” and the pKd (MAGI1_5, Q96QZ7; [3]) was 3.76. For the same binder, the pKd (SNTB2, Q13425) was “below the threshold”.
